Values of other authors as cited in patent US20150010606A1, “INTRA-ARTICULAR INJECTION AND IMPLANT ATTACHMENT OF MOLECULE CONSISTING OF LUBRICIN AND EXTRACELLULAR SUPEROXIDE DISMUTASE OR HYALURONIC ACID AND EXTRACELLULAR SUPEROXIDE DISMUTASE” (Arthrex, Inc., priority 2013, published 2015).

B1: Extracellular superoxide dismutase [Cu—Zn] (protein, UniProt P08294 19-240, looked up)
Extracellular superoxide …: WTGEDSAEPNSDSAEWIRDMYAKVTEIWQEVMQRRDDDGALHAACQVQPSATLDAAQPRVTGVVLFRQLAPRAKLDAFFALEGFPTEPNSSSRAIHVHQFGDLSQGCESTGPHYNPLAVPHPQHPGDFGNFAVRDGSLWRYRAGLAASLAGPHSIVGRAVVVHAGEDDLGRGGNQASVENGNAGRRLACCVVGVCGPGLWERQAREHSERKKRRRESECKAA

Tests used:
osteoarthritis = conditions: intra-articular injection; human clinical studies; compared to a placebo control
[1] = test system: collagen-induced arthritis; conditions: mice with collagen-induced arthritis treated with SOD3

Molecule	treatment of osteoarthritis (osteoarthritis)	histology of the joint [1]	joint swelling and deformity [1]
SOD derived from bovine erythrocytes: superoxide dismutase derived from bovine erythrocytes, injected intra-articularly to treat osteoarthritis	significant success when compared to a placebo control		
B1		less destruction of cartilage and bone, less infiltration of mononuclear cells, and less proliferation of synovial cells	suppression of joint swelling and deformity
